Reference: US20240197834A1, “PHARMACEUTICAL COMPOSITION FOR PREVENTING OR TREATING CHRONIC RENAL DISEASE INCLUDING GLUCAGON DERIVATIVE” (HANMI PHARM. CO., LTD., priority 2021, published 2024)
Bridge positions count the residues as written; N and C are the ends. Square brackets hold non-standard residues; d marks the D form. Ends that are not written are not given here. Aib = CC(C)(N)C(=O)O

Experiment: pI of native glucagon and glucagon derivatives
Format: physicochemical
Experimental: Accordingly, as described in Table 1 below, a native glucagon and glucagon derivatives having equivalent activity thereto were first prepared. Referring to WO 2016/108586, WO 2017/003191, and WO 2018/004283, the glucagon derivatives were synthesized, and pl and in vitro activity thereof were measured.

Point of comparison: “HSQGTFTSDYSKYLDCERAQDFVQWLMNT (glucagon derivative) [SEQ ID NO: 3]”, pl 4.66. Against it:
- HSQGTFTSDYSKYLDCDRAQDFVQWLMNT (glucagon derivative) [SEQ ID NO: 2] — lower, 4.56
- HSQGTFTSDYSKYLDSCDAQDFVQWLMNT (glucagon derivative) [SEQ ID NO: 4] — lower, 4.13
- HSQGTFTSDYSKYLDSCEADDFVQWLMNT (glucagon derivative) [SEQ ID NO: 6] — lower, 4.03
- HSQGTFTSDYSKYLDSCEAQDFVQWLMNT (glucagon derivative) [SEQ ID NO: 5] — lower, 4.22
- SQGTFTSDYSKYLDECRAKEFVQWLMNT (lactam 15-19) [SEQ ID NO: 32] — higher, 4.78
- WXQGTFTSDYSKCLDERRAKDFVQWLMNT (W[Aib]QGTFTSDYSKCLDERRAKDFVQWLMNT; lactam 16-20) [SEQ ID NO: 30] — lower, 4.44
- WXQGTFTSDYSKYCDERRAKEFVQWLMNT (W[Aib]QGTFTSDYSKYCDERRAKEFVQWLMNT; lactam 16-20) [SEQ ID NO: 34] — higher, 6.21
- WXQGTFTSDYSKYLDECRAKDFVQWLMNT (W[Aib]QGTFTSDYSKYLDECRAKDFVQWLMNT; lactam 16-20) [SEQ ID NO: 26] — higher, 4.68
- WXQGTFVSDYSKYLDECRAKDFVQWLMNT (W[Aib]QGTFVSDYSKYLDECRAKDFVQWLMNT; lactam 16-20) [SEQ ID NO: 28] — higher, 4.68
- YSQGTFTSDYSKYLDSCEADDFVQWLMNT (glucagon derivative) [SEQ ID NO: 7] — lower, 3.71
- YXQGTFCSDYSKYLDERRAKDFVQWLMNT (Y[Aib]QGTFCSDYSKYLDERRAKDFVQWLMNT; lactam 16-20) [SEQ ID NO: 41] — higher, 6.03
- YXQGTFCSDYSKYLDERRAKEFVQWLMNT (Y[Aib]QGTFCSDYSKYLDERRAKEFVQWLMNT; lactam 16-20) [SEQ ID NO: 38] — higher, 6.15
- YXQGTFCSDYSKYLDSRRAQDFVQWLMNT (Y[Aib]QGTFCSDYSKYLDSRRAQDFVQWLMNT) [SEQ ID NO: 42] — higher, 6.03
- YXQGTFTSDCSKYLDERRAKEFVQWLMNT (Y[Aib]QGTFTSDCSKYLDERRAKEFVQWLMNT; lactam 16-20) [SEQ ID NO: 36] — higher, 6.21
- YXQGTFTSDCSKYLDSRRAQDFVQWLMNT (Y[Aib]QGTFTSDCSKYLDSRRAQDFVQWLMNT) [SEQ ID NO: 43] — higher, 6.03
- YXQGTFTSDYSCYLDEKRAKEFVQWLMNT (Y[Aib]QGTFTSDYSCYLDEKRAKEFVQWLMNT) [SEQ ID NO: 45] — higher, 4.78
- YXQGTFTSDYSCYLDSRRAQDFVQWLMNT (Y[Aib]QGTFTSDYSCYLDSRRAQDFVQWLMNT) [SEQ ID NO: 13] — lower, 4.43
- YXQGTFTSDYSKCLDEKRAKEFVQWLMNT (Y[Aib]QGTFTSDYSKCLDEKRAKEFVQWLMNT; lactam 16-20) [SEQ ID NO: 24] — higher, 6.21
- YXQGTFTSDYSKCLDERRAKDFVQWLMNT (Y[Aib]QGTFTSDYSKCLDERRAKDFVQWLMNT; lactam 16-20) [SEQ ID NO: 29] — higher, 6.15
- YXQGTFTSDYSKYCDEKRAKEFVQWLMNT (Y[Aib]QGTFTSDYSKYCDEKRAKEFVQWLMNT; lactam 16-20) [SEQ ID NO: 23] — higher, 6.20
- YXQGTFTSDYSKYCDERRAKEFVQWLMNT (Y[Aib]QGTFTSDYSKYCDERRAKEFVQWLMNT; lactam 16-20) [SEQ ID NO: 35] — higher, 6.2
- YXQGTFTSDYSKYLCEKRAKEFVQWLMNT (Y[Aib]QGTFTSDYSKYLCEKRAKEFVQWLMNT; lactam 16-20) [SEQ ID NO: 19] — higher, 8.12
- YXQGTFTSDYSKYLCEKRAQDFVVWLMNT (Y[Aib]QGTFTSDYSKYLCEKRAQDFVVWLMNT) [SEQ ID NO: 15] — higher, 6.11
- YXQGTFTSDYSKYLDCKRAKEFVQWLMNT (Y[Aib]QGTFTSDYSKYLDCKRAKEFVQWLMNT; lactam 17-21) [SEQ ID NO: 31] — higher, 8.12
- YXQGTFTSDYSKYLDCKRAKEFVQWLMNT [SEQ ID NO: 14] (Y[Aib]QGTFTSDYSKYLDCKRAKEFVQWLMNT) — higher, 8.12
- YXQGTFTSDYSKYLDCRRAQVFVQWLMRT (Y[Aib]QGTFTSDYSKYLDCRRAQVFVQWLMRT) [SEQ ID NO: 16] — higher, 9.11
- YXQGTFTSDYSKYLDCVRAQDFVQWLMRT (Y[Aib]QGTFTSDYSKYLDCVRAQDFVQWLMRT) [SEQ ID NO: 17] — higher, 6.03
- YXQGTFTSDYSKYLDECRAKEFVQWLMNT (Y[Aib]QGTFTSDYSKYLDECRAKEFVQWLMNT; lactam 16-20) [SEQ ID NO: 20] — higher, 4.78
- YXQGTFTSDYSKYLDEKCAKEFVQWLMNT [SEQ ID NO: 11] (Y[Aib]QGTFTSDYSKYLDEKCAKEFVQWLMNT) — higher, 4.78
- YXQGTFTSDYSKYLDEKCAKEFVQWLMNT [SEQ ID NO: 21] (Y[Aib]QGTFTSDYSKYLDEKCAKEFVQWLMNT; lactam 16-20) — higher, 4.78
- YXQGTFTSDYSKYLDEKRAKCFVQWLMNT (Y[Aib]QGTFTSDYSKYLDEKRAKCFVQWLMNT; lactam 16-20) [SEQ ID NO: 25] — higher, 8.12
- YXQGTFTSDYSKYLDEKRAKEFVQWLMNTC (Y[Aib]QGTFTSDYSKYLDEKRAKEFVQWLMNTC; lactam 16-20) [SEQ ID NO: 12] — higher, 6.20
- YXQGTFTSDYSKYLDEKRCKEFVQWLMNT (Y[Aib]QGTFTSDYSKYLDEKRCKEFVQWLMNT; lactam 16-20) [SEQ ID NO: 22] — higher, 6.20
- YXQGTFTSDYSKYLDERRAKEFVQWLMNTC (Y[Aib]QGTFTSDYSKYLDERRAKEFVQWLMNTC; lactam 16-20) [SEQ ID NO: 37] — higher, 6.21
- YXQGTFTSDYSKYLDSCDADDFVVWLINT (Y[Aib]QGTFTSDYSKYLDSCDADDFVVWLINT) [SEQ ID NO: 10] — lower, 3.66
- YXQGTFTSDYSKYLDSCDAQDFVQWLINT (Y[Aib]QGTFTSDYSKYLDSCDAQDFVQWLINT) [SEQ ID NO: 8] — lower, 3.77
- YXQGTFTSDYSKYLDSCDAQDFVVWLINT (Y[Aib]QGTFTSDYSKYLDSCDAQDFVVWLINT) [SEQ ID NO: 9] — lower, 3.77
- YXQGTFTSDYSKYLDSRRACDFRLWLMNT (Y[Aib]QGTFTSDYSKYLDSRRACDFRLWLMNT) [SEQ ID NO: 18] — higher, 8.15
- YXQGTFTSDYSKYLDSRRAQDFVQWLMNT (X non-natural residue; glucagon derivative; (2) Xaa is aminoisobutyric acid (Aib)) [SEQ ID NO: 33] — higher, 6.04
- YXQGTFTSDYSKYLDSRRAQDFVQWLMNTC (glucagon derivative; (2) Xaa is aminoisobutyric acid (Aib)) [SEQ ID NO: 44] — higher, 6.21
- YXQGTFVSDCSKYLDERRAKDFVQWLMNT (Y[Aib]QGTFVSDCSKYLDERRAKDFVQWLMNT; lactam 16-20) [SEQ ID NO: 39] — higher, 6.15
- YXQGTFVSDYSKYLDECRAKDFVQWLMNT (Y[Aib]QGTFVSDYSKYLDECRAKDFVQWLMNT; lactam 16-20) [SEQ ID NO: 27] — higher, 4.68
- YXQGTFVSDYSKYLDERRAKDFVQWLMNTC (Y[Aib]QGTFVSDYSKYLDERRAKDFVQWLMNTC; lactam 16-20) [SEQ ID NO: 40] — higher, 6.15
